Reference: publication PMC3815950 (Microbial biotechnology, 2009)
“And” between values parts separate entries of the source, which are not always exact repeats. Equal values may be shown once.

Experiments:
[1] = substrate: [H][C@]12SCC(COC(C)=O)=C(C(=O)O)N1C(=O)[C@H]2NC(=O)CCC[C@@H](N)C(=O)O; experiment: acetate release, Michaelis-Menten; type: biochemical, Thermotoga maritima; conditions: 50 mM sodium phosphate pH 6.5, 60 °C
SEC = biological target: the molecule itself; experiment: SEC

B1: Thermotoga maritima acetyl xylan esterase AxeA (enzyme)
chain: MAFFDLPLEELKKYRPERYEEKDFDEFWEETLAESEKFPLDPVFERMESHLKTVEAYDVTFSGYRGQRIKGWLLVPKLEEEKLPCVVQYIGYNGGRGFPHDWLFWPSMGYICFVMDTRGQGSGWLKGDTPDYPEGPVDPQYPGFMTRGILDPRTYYYRRVFTDAVRAVEAAASFPQVDQERIVIAGGSQGGGIALAVSALSKKAKALLCDVPFLCHFRRAVQLVDTHPYAEITNFLKTHRDKEEIVFRTLSYFDGVNFAARAKIPALFSVGLMDNICPPSTVFAAYNYYAGPKEIRIYPYNNHEGGGSFQAVEQVKFLKKLFEKG
Work on B1 yielded a Km [1] of 4.18 ± 0.97 mM, a Vmax [1] of 19.2 µmol/min/mg and a kcat [1] of 11.8 s⁻¹. The kcat/Km [1] was 2830 M⁻¹ s⁻¹ and the “stoichiometry N” value (SEC) was 6 and 2.
